# Results taken from patent publication US20190388508A1.
# B1: Progranulin (PGRN), P28799 18-593 (ligand)
# chain: TRCPDGQFCPVACCLDPGGASYSCCRPLLDKWPTTLSRHLGGPCQVDAHCSAGHSCIFTVSGTSSCCPFPEAVACGDGHHCCPRGFHCSADGRSCFQRSGNNSVGAIQCPDSQFECPDFSTCCVMVDGSWGCCPMPQASCCEDRVHCCPHGAFCDLVHTRCITPTGTHPLAKKLPAQRTNRAVALSSSVMCPDARSRCPDGSTCCELPSGKYGCCPMPNATCCSDHLHCCPQDTVCDLIQSKCLSKENATTDLLTKLPAHTVGDVKCDMEVSCPDGYTCCRLQSGAWGCCPFTQAVCCEDHIHCCPAGFTCDTQKGTCEQGPHQVPWMEKAPAHLSLPDPQALKRDVPCDNVSSCPSSDTCCQLTSGEWGCCPIPEAVCCSDHQHCCPQGYTCVAEGQCQRGSEIVAGLEKMPARRASLSHPRDIGCDQHTSCPVGQTCCPSLGGSWACCQLPHAVCCEDRQHCCPAGYTCNVKARSCEKEVVSAQPATFLARSPHVGVKDVECGEGHFCHDNQTCCRDNRQGWACCPYRQGVCCADRRHCCPAGFRCAARGTKCLRREAPRWDAPLRDPALRQLL
# Tests used:
# TNFR2, P20333 [1] = molecular target: T1, TNFR2, P20333; assay: method not stated; reference TNFα; settings: remark: other sources report otherwise
# T1 chain: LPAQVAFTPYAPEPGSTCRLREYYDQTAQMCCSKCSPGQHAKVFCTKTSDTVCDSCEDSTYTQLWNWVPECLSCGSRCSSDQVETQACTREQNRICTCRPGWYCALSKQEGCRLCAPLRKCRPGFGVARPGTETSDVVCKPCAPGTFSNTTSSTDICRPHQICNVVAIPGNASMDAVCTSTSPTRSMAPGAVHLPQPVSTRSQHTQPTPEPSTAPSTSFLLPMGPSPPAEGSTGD
# TNFR2, P20333 [2] = molecular target: T1, TNFR2, P20333; assay: method not stated; settings: remark: other sources report otherwise
binder,measurement,setting,value
B1,fold higher binding affinity than TNFα,"TNFR2, P20333 [1]",600 fold
same,Kd,"TNFR2, P20333 [2]",1.52 nM
